Data taken from US20250282885A1 (VST BIO, published 2025).

Columns and labels:
human Sdc2 [1] = molecular target: T1, human Sdc2 (human, UniProt P34741 19-144, limits assumed); experiment: Octet BLI, heading box over the sensorgram
T1 construct: Antigen of the Octet tandem binning, loaded on biosensors at 100 nM; also called huSdc2; hSdc2
Method: (§1) In order to characterize the binding affinity and in vivo/in vitro functional ability of the twelve clones generated by the previous studies and disclosed in Table 1, a series of assays were performed on each clone. These assays measured the affinity of each antibody clone for human, pig, and mouse Sdc2 using an Octet® binding assay system. Additionally, the functional ability of each clone to inhibit VEGFA-driven permeability (see Santiago, et al. (2021) J Am Heart Assoc. 10(18):e020521) was assessed in two therapeutic settings: a “prevention” study in which three concentrations of antibody (5 μg/ml, 10 μg/ml, 15 μg/ml, 20 μg/ml, and/or 40 μg/ml depending on the study) were pre-incubated for an hour before administration of 100 ng/ml of VEGFA, and a “treatment” study in which 3 hours of pre-treatment with 100 ng/ml VEGFA were followed by treatment with antibody at 20 μg/ml or 40 μg/ml. Results are shown for 8-G17 in FIG. 8 and FIG. 9, 20-H19-AB in FIG. 10 and FIG. 11 (FIG. 12 for monkey ECs), R3-P3-C11 in FIG. 13 and FIG. 14, R4M-P3-E06 in FIG. 15 and FIG. 16, R3-P3-E09 in FIG. 17 and FIG. 18, R3-P1-C02 in FIG. 19 and FIG. 20, R3-P3-A12 in FIG. 21 and FIG. 22, R4M-P3-A12 in FIG. 23 and FIG. 24, and R4M-P1-A10 in FIG. 25 and FIG. 26.

mouse Sdc2 [2] = molecular target: T2, mouse Sdc2 (mouse, UniProt P43407 19-145, limits assumed); experiment: Octet BLI, heading box over the sensorgram
T2 construct: Immobilised on Maxisorp plates for panning and ELISA; also called mSdc2; moSdc2
Method: as §1

human Sdc2 [3] = molecular target: T1, human Sdc2; experiment: Octet tandem binning; saturating Ab m2 19838-8G17-A
human Sdc2 [4] = molecular target: T1, human Sdc2; experiment: Octet tandem binning; saturating Ab f12 19838-6-N03-A
human Sdc2 [5] = molecular target: T1, human Sdc2; experiment: Octet tandem binning; saturating Ab m1 19838-20H19-AB
human Sdc2 [6] = molecular target: T1, human Sdc2; experiment: Octet tandem binning; saturating Ab f10 19838-10-I12-A
human Sdc2 [7] = molecular target: T1, human Sdc2; experiment: Octet tandem binning; saturating Ab f11 19838-20-H19-A
human Sdc2 [8] = molecular target: T1, human Sdc2; experiment: Octet tandem binning; saturating Ab f6 19844-R3-P3-E09
Summary of the method: (§2)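 Octet sensors bearing 100 nM human Sdc2 got a 240 s saturating-antibody dip at 25 μg/ml and then a 180 s competitor dip at 5 μg/ml. Signal ratios are relative to buffer in place of the saturating step.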

human Sdc2 [9] = molecular target: T1, human Sdc2; experiment: Octet tandem binning; saturating Ab f7 19844-R3-P3-A12
human Sdc2 [10] = molecular target: T1, human Sdc2; experiment: Octet tandem binning; saturating Ab m7 19844-R3-P1-E07
human Sdc2 [11] = molecular target: T1, human Sdc2; experiment: Octet tandem binning; saturating Ab f5 19844-R4M-P3-E06
human Sdc2 [12] = molecular target: T1, human Sdc2; experiment: Octet tandem binning; saturating Ab m4 19844-R4M-P1-A10
Summary of the method: as §2

human Sdc2 [13] = molecular target: T1, human Sdc2; experiment: Octet tandem binning; Buffer in place of a saturating Ab
mouse Sdc2 [14] = molecular target: T2, mouse Sdc2; experiment: Octet BLI, HIS1K sensor loaded with moSdc2, antibody as sample; Full R2 0.9584
pig Sdc2 = molecular target: T3, pig Sdc2 (pig, UniProt F1S0L5 19-145); experiment: Octet BLI, HIS1K sensor loaded with pigSdc2, antibody as sample; Full R2 0.9799
T3 construct: also called pSdc2

human Sdc2 [15] = molecular target: T1, human Sdc2; experiment: Octet tandem binning; saturating Ab m3 19844-R3-P1-C02 (row boxed, self-self >0.09)
human Sdc2 [16] = molecular target: T1, human Sdc2; experiment: Octet tandem binning; saturating Ab m8 19844-R4M-P1-B01 (marked non-binding ligand)

T1 sequence (P34741 19-144 limits assumed): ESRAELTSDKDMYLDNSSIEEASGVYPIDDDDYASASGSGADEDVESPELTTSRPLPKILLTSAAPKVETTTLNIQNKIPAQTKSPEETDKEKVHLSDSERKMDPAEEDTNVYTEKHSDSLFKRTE
T2 sequence (P43407 19-145 limits assumed): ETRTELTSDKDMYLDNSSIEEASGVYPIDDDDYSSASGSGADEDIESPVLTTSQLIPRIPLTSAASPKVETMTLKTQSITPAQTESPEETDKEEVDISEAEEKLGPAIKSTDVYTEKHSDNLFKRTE

Kd (human Sdc2 [1]): ~14 nM | Kd (mouse Sdc2 [2]): ~11.6 nM | raw competing-Ab binding signal (human Sdc2 [3]): 0.103 | raw competing-Ab binding signal (human Sdc2 [4]): 0.136 | raw competing-Ab binding signal (human Sdc2 [5]): 0.153 | raw competing-Ab binding signal (human Sdc2 [6]): 0.152 | raw competing-Ab binding signal (human Sdc2 [7]): 0.165 | raw competing-Ab binding signal (human Sdc2 [8]): -0.0526 | raw competing-Ab binding signal (human Sdc2 [9]): -0.0178 | raw competing-Ab binding signal (human Sdc2 [10]): 0.132 | raw competing-Ab binding signal (human Sdc2 [11]): 0.0642 | raw competing-Ab binding signal (human Sdc2 [12]): -0.0712 | raw competing-Ab binding signal (human Sdc2 [13]): 0.0926 | Kd (mouse Sdc2 [14]): 11.6 nM | koff (mouse Sdc2 [14]): 0.00914 s⁻¹ | kon (mouse Sdc2 [14]): 3.74e+06 M⁻¹ s⁻¹ | Kd (pig Sdc2): 15 nM | koff (pig Sdc2): 0.0419 s⁻¹ | kon (pig Sdc2): 2.8e+06 M⁻¹ s⁻¹ | raw competing-Ab binding signal (human Sdc2 [15]): 0.0422 | raw competing-Ab binding signal (human Sdc2 [16]): 0.0929
B1: R4M-P3-A12 (antibody, human IgG1, kappa, V domains shown)
VH: EVQLVESGGGVVQPGGSLRLSCAASGFTFSDHYMSWIRQAPGKGLEWVSYLSGSGTSIYYADSVKGRFTISRDNAKKSLYLQMNSLRAEDTAVYYCARVGPAAGNAFDIWGQGTMVTVSS
VL: QSVLTQPPSASGTPGQRVTISCSGSSSNIGSNYVYWYQQLPGTAPKLLIYRNNQRPSGVPDRFSGSKSGTSASLAITGLQAEDEADYYCQSYDSSLSGVVFGGGTKLTVLR
